{"source": "patent EP3505186B1", "about": "“NUCLEOPHILIC CATALYSTS FOR OXIME LINKAGE” (Takeda Pharmaceutical Company Limited, priority 2010, dated 2012)", "key": {"[1]": {"conditions": "in vitro studies; Bombhard and Herbold 2005; cited from earlier work"}, "[2]": {"conditions": "Harrison and Jollow 1987; cited from earlier work"}, "rats": {"test_system": "rats", "conditions": "long-term dietary treatment of rats; Goodman et al. 1984; cited from earlier work"}, "[3]": {"experiment": "Specific activity of the EPO conjugate: biological activity by methods known in the art and total protein (Bradford)"}, "[4]": {"experiment": "Specific activity of the Prolia conjugate: biological activity by methods known in the art and total protein (Bradford)", "method": "The free Prolia is removed by means of cation exchange chromatography (CEC). The reaction mixture is diluted with 20 ml Buffer A (50 mM Hepes, pH 6.5) and loaded onto a 20 ml HiPrep SPFF 16/10 column (GE Healthcare, Fairfield, CT) pre-equilibrated with Buffer A. Then the column is eluted with Buffer B (50 mM Hepes, 1 M NaCl, pH 6.5). Free Prolia is eluted by washing the column with 25 % Buffer B and the conjugate at 50 % Buffer B. The conductivity of the conjugate containing fractions is subsequently raised to -190 mS/cm with Buffer C (50 mM Hepes, 5 M NaCl, pH 6.9) and loaded onto a 20 ml HiPrep Butyl FF 16/10 column (GE Healthcare, Fairfield, CT) pre-equilibrated with Buffer D (50 mM Hepes, 3 M NaCl, pH 6.9). Free PSA-reagent is washed out within 5 CV Buffer D. Subsequently, the conjugate is eluted with 100 % Buffer E (50 mM Hepes, pH 6.9). The conjugate containing fractions are concentrated by UF/DF using a 10 kD membrane made of regenerated cellulose (88 cm2, cut-off 10 kD, Millipore). The final diafiltration step is performed against histidine buffer, pH 6.9 containing 150 mM NaCl. The preparation is analytically characterized by measuring total protein (Bradford) and biological activity according to methods known in the art. For the PSA-Prolia conjugate a specific activity of > 50 % in comparison to native Prolia is determined. The conjugate is additionally analytically characterized by Size Exclusion HPLC using a Agilent 1200 HPLC system equipped with a Shodex KW 803 column under conditions as previously described (Kolarich et al, Transfusion 2006;46:1959-77). It is shown that the preparation contains no free Prolia.\nThe free Prolia is removed by means of cation exchange chromatography (CEC). The reaction mixture is diluted with 20 ml Buffer A (50 mM Hepes, pH 6.5) and loaded onto a 20 ml HiPrep SPFF 16/10 column (GE Healthcare, Fairfield, CT) pre-equilibrated with Buffer A. Then the column is eluted with Buffer B (50 mM Hepes, 1 M NaCl, pH 6.5). Free Prolia is eluted by washing the column with 25 % Buffer B and the conjugate at 5 0% Buffer B. The conductivity of the conjugate containing fractions is subsequently raised to -190 mS/cm with Buffer C (50 mM Hepes, 5 M NaCl, pH 6.9) and loaded onto a 20 ml HiPrep Butyl FF 16/10 column (GE Healthcare, Fairfield, CT) pre-equilibrated with Buffer D (50 mM Hepes, 3 M NaCl, pH 6.9). Free PSA-reagent is washed out within 5 CV Buffer D. Subsequently the conjugate is eluted with 100% Buffer E (50 mM Hepes, pH 6.9). The conjugate containing fractions are concentrated by UF/DF using a 10 kD membrane made of regenerated cellulose (88 cm^2, cut-off 10 kD / Millipore). […] For the PSA-Prolia conjugate a specific activity of > 50 % in comparison to native Prolia is determined. […]"}, "FIX chromogenic activity": {"test_system": "FIX chromogenic activity", "experiment": "Specific activity of the rFIX conjugate: FIX chromogenic (and clotting) activity and total protein", "assay_type": "biochemical", "method": "The free rFIX was removed by means of anion exchange chromatography (AEC). The reaction mixture was diluted with 15 ml Buffer A (50 mM Hepes, 5 mM CaCl2, pH 7.5) and loaded onto a 20 ml HiPrep QFF 16/10 column (GE Healthcare, Fairfield, CT) pre-equilibrated with Buffer A. The column was then eluted with Buffer B (50 mM Hepes, 1 M NaCl, 5 mM CaCl2, pH 7.5). Free rFIX elutes at a conductivity between 12-25 mS/cm and the conjugate between 27-45 mS/cm. The conductivity of the conjugate containing fractions was subsequently raised to 190 mS/cm with Buffer C (50 mM Hepes, 5M NaCl, 5 mM CaCl2, pH 6.9) and loaded onto a 20 ml HiPrep Butyl FF 16/10 column (GE Healthcare, Fairfield, CT) pre-equilibrated with Buffer D (50 mM Hepes, 3 M NaCl, 5 mM CaCl2, pH 6.9). Free aminooxy-PSA reagent was washed out within 5 CV Buffer D. Subsequently the conjugate is eluted with 100 % Buffer E (50 mM Hepes, 5 mM CaCl2, pH 7.4). The conjugate containing fractions were concentrated by UF/DF using Vivaspin 15R 10 kD centrifugal filtrator. The final diafiltration step was performed against histidine buffer, pH 7.2 containing 150 mM NaCl and 5 mM CaCl2. The preparation was analytically characterized by measuring total protein (Bradford) and FIX chromogenic activity.\nThe free rFIX is removed by means of anion exchange chromatography (AEC). The reaction mixture is diluted with appropriate amounts of Buffer A (50 mM Hepes, 5 mM CaCl2, pH 7.5) to correct the solutions conductivity and pH prior to load onto a 20 ml HiPrep QFF 16/10 column (GE Healthcare, Fairfield, CT) pre-equilibrated with buffer A. Then the column is eluted with Buffer B (50 mM Hepes, 1 M NaCl, 5 mM CaCl2, pH 7.5). Free rFIX is eluted by a step gradient using 25 % of Buffer B, which results in a conductivity between 12-25 mS/cm in the obtained fraction and the conjugate using a step gradient of 50 % Buffer B, which results in a conductivity between between 27-45 mS/cm in the conjugate fraction. […] Free aminooxy-PSA reagent is washed out within 5 CV Buffer D. Subsequently, the conjugate is eluted with 100 % Buffer E (50 mM Hepes, 5 mM CaCl2, pH 7.4). The conjugate containing fractions are concentrated by UF/DF using a 10 kD membrane made of regenerated cellulose (88 cm2, cut-off 10 kD, Millipore). The final diafiltration step is performed against L-histidine buffer, pH 7.2 containing 150 mM NaCl and 5 mM CaCl2. The preparation is analytically characterized by measuring total protein (Bradford and BCA procedure) and FIX chromogenic- and clotting activity. For the PSA-rFIX conjugate a specific activity of > 50 % in comparison to native rFIX is determined.\nThe free rFIX was removed by means of anion exchange chromatography (AEC). […]"}}, "data": [{"compound": "Nc1ccccc1", "note": "[aniline]", "values": [{"measurement": "chromosome mutations / genotoxic activity", "setting": "[1]", "value": "potential to induce chromosome mutations"}, {"measurement": "methemoglobinemia", "setting": "[2]", "value": "induce methemoglobinemia"}, {"measurement": "tumors in the spleen", "setting": "rats", "value": "induce tumors in the spleen"}]}, {"compound": "PEG-EPO conjugate: EPO PEGylated with a linear 20 kD PEGylation reagent containing an aminooxy group, m-toluidine as catalyst", "values": [{"measurement": "specific activity in comparison to native EPO", "setting": "[3]; Reference Example 32 Method 1, alternative (oxidation, then m-toluidine and 20 kD aminooxy-PEG, 5-fold)", "value": "> 50", "unit": "%"}, {"measurement": "specific activity in comparison to native EPO", "setting": "[3]; Reference Example 32 Method 3, alternative (simultaneous, 20 kD aminooxy-PEG, 5-fold)", "value": "> 50", "unit": "%"}]}, {"compound": "PEG-Prolia conjugate: Prolia PEGylated with a linear 20 kD aminooxy PEGylation reagent, m-toluidine as catalyst", "values": [{"measurement": "specific activity in comparison to native Prolia", "setting": "[4]; Reference Example 44 Method 1, alternative (oxidation, then m-toluidine and 20 kD aminooxy-PEG, 5-fold)", "value": "> 50", "unit": "%"}, {"measurement": "specific activity in comparison to native Prolia", "setting": "[4]; Reference Example 44 Method 3, alternative (simultaneous, 20 kD aminooxy-PEG, 5-fold)", "value": "> 50", "unit": "%"}]}, {"compound": "PSA-EPO conjugate: erythropoietin polysialylated with 20 kD aminooxy-PSA reagent, m-toluidine as catalyst", "values": [{"measurement": "specific activity in comparison to native EPO", "setting": "[3]; Reference Example 18 Method 1, alternative procedure (oxidation, then m-toluidine and 20 kD aminooxy-PSA, 5-fold)", "value": "> 50", "unit": "%"}, {"measurement": "specific activity in comparison to native EPO", "setting": "[3]; Reference Example 18 Method 3, alternative procedure (simultaneous, 20 kD aminooxy-PSA, 5-fold)", "value": "> 50", "unit": "%"}]}, {"compound": "PSA-Prolia conjugate: Prolia polysialylated with 20 kD aminooxy-PSA reagent, m-toluidine as catalyst", "values": [{"measurement": "specific activity in comparison to native Prolia", "setting": "[4]; Reference Example 30 Method 1, alternative (oxidation, then m-toluidine and 20 kD aminooxy-PSA, 5-fold)", "value": "> 50", "unit": "%"}, {"measurement": "specific activity in comparison to native Prolia", "setting": "[4]; Reference Example 30 Method 3, alternative (simultaneous, 20 kD aminooxy-PSA, 5 fold)", "value": "> 50", "unit": "%"}]}, {"compound": "PSA-rFIX conjugate: rFIX polysialylated via oxidized carbohydrate with 20 kD aminooxy-PSA reagent, m-toluidine as catalyst", "values": [{"measurement": "specific activity in comparison to native rFIX", "setting": "FIX chromogenic activity; Reference Example 11 Method 1 (oxidation, UF/DF, then m-toluidine and 20 kD aminooxy-PSA), FIX chromogenic activity, Bradford", "value": "> 50", "unit": "%"}, {"measurement": "specific activity in comparison to native rFIX", "setting": "FIX chromogenic activity; Reference Example 11 Method 2 (oxidation, UF/DF, then 10 mM m-toluidine and 20 kD aminooxy-PSA), FIX chromogenic- and clotting activity, Bradford and BCA", "value": "> 50", "unit": "%"}, {"measurement": "specific activity in comparison to native rFIX", "setting": "FIX chromogenic activity; Reference Example 11 Method 3 (simultaneous periodate, m-toluidine, 20 kD aminooxy-PSA), FIX chromogenic activity, Bradford", "value": "> 50", "unit": "%"}, {"measurement": "specific activity in comparison to native rFIX", "setting": "FIX chromogenic activity; Reference Example 11 Method 4 (simultaneous, 2 mg rFIX / ml), FIX chromogenic- and clotting activity, Bradford and BCA", "value": "> 50", "unit": "%"}]}]}
